Here are results for four proteins from paper PMC3777628 (Virology, 2013).

The data set concerns the molecule itself. Description: SDS-PAGE of SDS-resistant dimers and oligomers.

For the protein AQRILIFLLEFLLDFCTGEDSVDGKKRQRHSGLTEQTYSALPEPKAT (domain or fragment) [MBP-Agno (25–71)], the binding result is on record as “binds”.

With ILIFLLEFLLDFCTGEDSVDGKKRQRHSGLTEQTYSALPEPKAT (domain or fragment) [MBP-Agno (28–71)], the binding result is “binds”.

B1: MBP-Agno Ala(34–36) (natural protein)
chain: MVLRQLSRKASVKVSKTWSGTKKRAQRILIFLLAAALDFCTGEDSVDGKKRQRHSGLTEQTYSALPEPKAT
Turning to B1, the binding result was “binds”.

B2: MBP-Agno (17–71) (domain or fragment)
chain: TWSGTKKRAQRILIFLLEFLLDFCTGEDSVDGKKRQRHSGLTEQTYSALPEPKAT
With B2, the binding result is reported as “binds”.
